Assay results published in paper PMC8602290, “G3BP1 inhibits Cul3^SPOP to amplify AR signaling and promote prostate cancer” (Nature Communications, 2021).

T1: Myc-DEK protein (affinity-purified) (UniProt P35659 1-375)
T1 construct: DEK, recombinant Myc-tagged protein
T1 sequence (looked up): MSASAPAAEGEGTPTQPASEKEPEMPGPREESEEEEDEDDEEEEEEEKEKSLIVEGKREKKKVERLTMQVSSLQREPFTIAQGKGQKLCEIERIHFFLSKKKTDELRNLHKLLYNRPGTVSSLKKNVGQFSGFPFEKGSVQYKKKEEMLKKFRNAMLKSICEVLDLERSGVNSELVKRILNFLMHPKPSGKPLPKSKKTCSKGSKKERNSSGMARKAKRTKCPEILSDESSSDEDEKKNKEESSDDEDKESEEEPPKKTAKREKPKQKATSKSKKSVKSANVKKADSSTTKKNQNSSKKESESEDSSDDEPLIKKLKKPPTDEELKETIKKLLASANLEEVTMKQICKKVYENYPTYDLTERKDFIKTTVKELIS

B1: FLAG-G3BP1^RRM (22Rv1) (domain or fragment, UniProt Q13283 338-466, looked up)
chain: DSHQLFIGNLPHEVDKSELKDFFQSYGNVVELRINSGGKLPNFGFVVFDDSEPVQKVLSNRPIMFRGEVRLNVEEKKTRAAREGDRRDNRLRGPGGPRGGLGGGMRGPPRGGMVQKPGFGVGRGLAPRQ
notes: also called FLAG-RRM; G3BP1^RRM-RGG; source: 22Rv1, transfected, in cells or lysate
B2: His-SPOP protein (affinity-purified) (natural protein, UniProt O43791 1-374, looked up)
chain: MSRVPSPPPPAEMSSGPVAESWCYTQIKVVKFSYMWTINNFSFCREEMGEVIKSSTFSSGANDKLKWCLRVNPKGLDEESKDYLSLYLLLVSCPKSEVRAKFKFSILNAKGEETKAMESQRAYRFVQGKDWGFKKFIRRDFLLDEANGLLPDDKLTLFCEVSVVQDSVNISGQNTMNMVKVPECRLADELGGLWENSRFTDCCLCVAGQEFQAHKAILAARSPVFSAMFEHEMEESKKNRVEINDVEPEVFKEMMCFIYTGKAPNLDKMADDLLAAADKYALERLKVMCEDALCSNLSVENAAEILILADLHSADQLKTQAVDFINYHASDVLETSGWKSMVVSHPHLVAEAYRSLASAQCPFLGPPRKRLKQS
notes: SPOP, recombinant His-tagged protein

Experiments:
[1] = molecular target: T2, Speckle-type POZ protein (SPOP), endogenous in 22Rv1 cells (human (endogenous in 22Rv1), UniProt O43791 1-374); test: proximity ligation; 22Rv1 cells transfected with FLAG-G3BP1 constructs; Duolink II kit, antibodies against FLAG-M2 and SPOP (endogenous); percentage of cells with signal; settings: partners not purified
T2 construct: SPOP, endogenous protein of human 22Rv1 prostate cancer cells; also called endogenous SPOP; source: endogenous, 22Rv1 lysate or cells

[2] = molecular target: T3, His G3BP1 protein (affinity-purified) (UniProt Q13283 1-466); test: co-IP; in vitro binding assay with affinity-purified proteins: 4 ug His-SPOP with 0.125, 0.25 or 0.75 ug His G3BP1 in 1 ml pulldown buffer, 4 C, 60 min, then 0.56 ug Myc-DEK; IP with anti-SPOP and protein G agarose; wash 50 mM Tris pH 7.5, 200 mM NaCl; settings: both partners purified
T3 construct: G3BP1, recombinant His-tagged protein

[3] = molecular target: T1, Myc-DEK protein (affinity-purified); test: as above; settings: both partners purified

Row | Binder | percentage of cells with PLA positive signal [1] [%] | binding result [2] | binding result [3]
1 | B1 | 70 | – | –
2 | B2 | – | binds | binds
